In PMC3478540 (Diabetes, 2012) one finds Kd data, which are given here for one molecule.

The target of this experiment is GRP78 in membrane fractions of mouse liver (mouse (endogenous in liver), UniProt P20029 20-655). As to the kind of experiment: radioligand binding.
Sequence of GRP78 in membrane fractions of mouse liver (P20029 20-655): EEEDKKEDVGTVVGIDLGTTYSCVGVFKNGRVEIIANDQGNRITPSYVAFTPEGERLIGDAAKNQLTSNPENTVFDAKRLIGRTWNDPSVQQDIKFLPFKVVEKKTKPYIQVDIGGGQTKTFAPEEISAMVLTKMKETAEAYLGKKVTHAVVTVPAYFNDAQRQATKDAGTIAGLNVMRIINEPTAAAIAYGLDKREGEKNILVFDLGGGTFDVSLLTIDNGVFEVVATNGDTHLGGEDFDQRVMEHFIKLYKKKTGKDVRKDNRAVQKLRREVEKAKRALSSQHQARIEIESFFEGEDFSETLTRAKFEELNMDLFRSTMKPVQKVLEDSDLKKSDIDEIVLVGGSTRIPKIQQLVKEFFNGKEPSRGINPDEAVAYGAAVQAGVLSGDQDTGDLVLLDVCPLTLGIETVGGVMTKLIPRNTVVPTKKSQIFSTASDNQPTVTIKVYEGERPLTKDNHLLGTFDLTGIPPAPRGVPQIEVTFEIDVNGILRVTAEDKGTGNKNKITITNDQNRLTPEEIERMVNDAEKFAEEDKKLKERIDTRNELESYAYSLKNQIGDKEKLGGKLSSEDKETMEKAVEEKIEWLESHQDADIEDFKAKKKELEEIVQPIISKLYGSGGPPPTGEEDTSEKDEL

B1: ^125I-vaspin (iodinated rhVaspin) (natural protein, human, UniProt Q8IW75 21-414, looked up)
chain: LKPSFSPRNYKALSEVQGWKQRMAAKELARQNMDLGFKLLKKLAFYNPGRNIFLSPLSISTAFSMLCLGAQDSTLDEIKQGFNFRKMPEKDLHEGFHYIIHELTQKTQDLKLSIGNTLFIDQRLQPQRKFLEDAKNFYSAETILTNFQNLEMAQKQINDFISQKTHGKINNLIENIDPGTVMLLANYIFFRARWKHEFDPNVTKEEDFFLEKNSSVKVPMMFRSGIYQVGYDDKLSCTILEIPYQKNITAIFILPDEGKLKHLEKGLQVDTFSRWKTLLSRRVVDVSVPRLHMTGTFDLKKTLSYIGVSKIFEEHGDLTKIAPHRSLKVGEAVHKAELKMDERGTEGAAGTGAQTLPMETPLVVKIDKPYLLLIYSEKIPSVLFLGKIVNPIGK
modifications: 125I-iodinated, residues not stated
As a reminder, the Kd is the concentration at which binding is half-saturated. High values mean a looser complex, low ones a tighter complex. Consider B1, for which the Kd turned out to be 22.2 nM.
